Laboratory results published in the supplement of paper PMC9170038.

Test system: K4 kissing-loop RNA reporter
Test: apparent KD of K4 kissing-loop reporter; higher = weaker reporter binding
Conditions: Eterna round: R107
Protocol: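 RNA-MaP round R107: designed RNA switches with theophylline, tryptophan, arginine or FMN aptamers are transcribed on-chip within common flanks. They are titrated with a labelled K4 kissing-loop RNA reporter in RNA-MaP buffer (100 mM Tris pH 7.5, 80 mM KCl, 4 mM MgCl2), without ligand or with the indicated ligand. Median apparent KD per design.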

[1] = input ligand: theophylline 20 uM
[2] = input ligand: tryptophan 2.4 mM
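Further: bound reporter read as fluorescence of individual clusters on recovered sequencing chips by microscopy, with normalized cluster intensities fitted with a binding model.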

| Sequence | apparent KD of K4 kissing-loop reporter (input ligand: FMN 200 uM) [nM] | apparent KD of K4 kissing-loop reporter (input ligand: arginine 13.2 mM) [nM] | apparent KD of K4 kissing-loop reporter (input ligand: none) [nM] | apparent KD of K4 kissing-loop reporter [1] [nM] | apparent KD of K4 kissing-loop reporter [2] [nM] |
| --- | --- | --- | --- | --- | --- |
| UGUCAUGGAAACAUGAACGUUGAUGUUCGACGAGGACCGGUACGGCCGCCACUCGAGUAAUAGUCAGUGAUGUUGACUGGGCUAA [KL-SSTryp-A form1 sub2] | 146 | 216 | 219 | 250 | 140 |
| UGUCAUUGGUCGGCCGCCACUUCGUGUGGAGUGAUGUUUUGUAGGUUGUGUUGAAAGGUAUGGUGAAGGACCGGGACCGAUGACU [FiskerMod 20 - Jieux - Same State - Tryptophan B] | 651 | 384 | 496 | 1080 | 525 |
| UGUCAUUGGUCUGAUACCAGUACCCUUGGCAGCCAAGGAGUGAUGUUCCAAGGAUACCAGUACCCUUGGCAGCAGACCGAUGACU [TheoBS 25 #DoubleAptamer #SwitchBubble] | 884 | 802 | 758 | 194 | 964 |
| UGUCAUUGGUCUGAUACCAGUCCCUUGGCAGCCAAAUGGAGUGAUGUUCCAAGGAUACCAGACCCUUGGCAGCAGACCGAUGACU [TheoBS 26 #DoubleAptamer #SwitchBubble] | 556 | 397 | 552 | 377 | 499 |
| UGUGAACAAAAGUAGAGUGGACCACUAUAGCGAGGACCGGUACGGCCGCCACUCGUACAUGUAUUCAGUGAUGUUGAAAUGAGCU [whbob_EX_Tryp_A_t15] | 200 | 319 | 268 | 362 | 150 |
| UGUGAACAAAAGUAGAGUGGACCACUAUAGCGAGGACCGGUACGGCCGCCACUCGUAUAUAAAUUCAGUGAUGUUGAAAAGAGCU [Exclusion Tryptophan A GF1] | 175 | 283 | 215 | 260 | 149 |
| UGUGAGCUGUCGACAAAAGUCGACUAAAACGAGGAUAUGACGAAAGUCAGAAGGCGUCAAUAAUGGAGUGAUGUUCCUGCUCACU [FmnA 9 #SwitchBubble #K4Late] | 256 | 404 | 552 | 453 | 401 |
| UGUGGAGAAUAUGAUACCAGCAGUGAGAGAGAGGAAGUAUAGUGAUGUUAUAUGAGAGAAUGCCCUUGGCAGCAUAUGUAGUAGG [SSTheophylB.G] | 209 | 162 | 207 | 208 | 188 |
| UGUGUUUACCUGACUCAGUGAUGUUGAGAAGGAGCGUGCUAAAGCACAGGUAGGUCGCUCAACCUAAAUUCAGGUGAGCACUAAA | 350 | 258 | 312 | 326 | 257 |
| UGUUUUUACUGAAGGAGCGGCAAUUGAUACGUAGAUAUAGUGAUGUUAUAUAAGAUAGAGAGCCAGGUAGGUCGCAGAGUGUAUC [ExArgB.aB] | 217 | 188 | 207 | 172 | 213 |
| UUACUACCCAGUGAUGUUGGGUAGCGGCGGCGAGGACCGGUACGGCCGCCACUCGGCGCACGGGAGUGAUGUUCCUACCGUUAGG [Same state Tryptophan A GF 8] | 514 | 455 | 604 | 747 | 294 |
| UUAGUCAGAUUAUUAUUAGCCUGCGAGACUAAGGAUAUCCGAAUUCGGAGAAGGUAGUGAUGUUACUUUGGCAGGCACUGACAUU [AK8 Exc FMN A] | 890 | 611 | 727 | 643 | 576 |
| UUAGUCUAGAGAAGGAGCGAGUGAUGUUCGCAGCCCAAAUAAUAAUAAUAAUAAGGGCAUCCUCAGGUAGGUCGCUCUAGACAUU [AK5 Exc Arginine B] | 335 | 290 | 334 | 354 | 292 |
| UUAGUCUAGAGAAGGAGCGAGUGAUGUUCGCAUGCUAUGAUGAAUUCAUCAUAGUUUAAUCCUCAGGUAGGUCGCUCUAGACAUU [AK7 Exc Arginine B] | 427 | 339 | 418 | 355 | 350 |
| UUAGUUGAAAGUGAUACCAGACGAGUGAAGGGAAGAAAUUAAGUUGGAGUGAUGUUCCGCGUCCCUUGGCAGCACUUUGUAAUUU [Exclusion Theophylline B GF 22] | 135 | 151 | 125 | 161 | 121 |
| UUCCACCGAGAAGGAUAUUAUGCUGGACUUGUUUAAGUGUUAAAUAGUGAUGUUAUUUGAUCGGAAUAAGAAGGUCUCAAGUUGA [theeternabot_sameState_KL_FMN_B_44] | 155 | 131 | 145 | 142 | 119 |
| UUGAGCCGGACCGAAGUCCGGCUCUGCGAGCGAGGACCGGUACGGCCGCCACUCGGUGCAGUGAUGUUGCAUGGCCGCAAGGCCG [#2 Exclusion - Tryptophan A Attempt #8 (HarryS)] | 424 | 286 | 418 | 339 | 401 |
| UUGAGUGAUGUUCAAUUAAUGUGCAACGAUACCAGCUCAUAUGCUAGCCCUUGGCAGCGUGGUAACGUAAUUUUAUCAAAUGAUA [theeternabot_exclusion_KL_Theo_A_39] | 232 | 199 | 198 | 205 | 145 |
| UUGUCCGGGUGAUGGUCAUCACGUGGCGGGCGAGGACCGGUACGGCCGCCACUCGACUUUGCAGUGAUGUUGCAAACCGGACAAU [Exclusion - Tryptophan A (Freestyle 23)] | 231 | 174 | 192 | 224 | 210 |
| UUGUUUGGUUGAGAGGUUGGGCGAGAUGAUACCAGUAGAGAAGAGUACCCUUGGCAGCAUAGGAAAGAUAUAGUGAUGUUGUAUA [SSTheophA.Q] | 354 | 313 | 357 | 165 | 309 |
| UUGUUUUACUGAAGGAGCGGCAAUUGAUACGUAGAUAUAGUGAUGUUAUAUAAGAUAGAGAGCCAGGUAGGUCGCAGAUUUUUUU [ExArgB.V] | 164 | 157 | 144 | 185 | 118 |
